Reference: US20260234276A1 (DOMAIN THERAPEUTICS, published 2026)
Where “and” joins values, the source holds several entries; their conditions need not be identical. Identical values can stand only once.

How the values were obtained:
pm5 = pm5 (human, sulfated tyrosines at Y15 and Y17); assay: ELISA on coated peptide [cont.]
Summary of the method: (§1)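 OD after 15 min TMB development reflects binding of each anti-CCR8 mAb, tested at 1 μg/mL and diluted 1/10, to CCR8-related peptides adsorbed at 500 ng/mL from carbonate/bicarbonate buffer. Antibody incubation lasted 90 min at room temperature.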

pm6 = pm6 (human, sulfated tyrosines at Y16 and Y17); assay: ELISA on coated peptide [cont.]
pm6 (human, sulfated tyrosines at Y16 and Y17), sequence (peptide, as listed by the source): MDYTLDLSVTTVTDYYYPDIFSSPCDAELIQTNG
Summary of the method: as §1

pm3 = pm3 (human, sulfated tyrosine at Y17); assay: ELISA on coated peptide [cont.]
pm3 (human, sulfated tyrosine at Y17), sequence (peptide, as listed by the source): as above
Summary of the method: as §1

pm8 = pm8 (human, sulfated tyrosines at Y15, Y16 and Y17); assay: ELISA on coated peptide [cont.]
pm8 (human, sulfated tyrosines at Y15, Y16 and Y17), sequence (peptide, as listed by the source): as above
Summary of the method: as §1

human CCR8 [1] = target: T1, human CCR8 (human, UniProt P51685 1-355); assay: cell-based or functional assay
human CCR8 [2] = target: T1, human CCR8; assay: cell-based or functional assay; remark: listed apart in the source
human CCR8 [3] = target: T1, human CCR8; assay: flow cytometry, hCCR8 transfected CHOK1 cells
human CCR8 [4] = target: T1, human CCR8; assay: cell-based or functional assay; remark: listed apart in the source

pm5 (human, sulfated tyrosines at Y15 and Y17), sequence (peptide, as listed by the source): as above

binding result (pm5) | binding result (pm6) | binding result (pm3) | binding result (pm8) | IC50 (Gi2 BRET, pH 6.5) (human CCR8 [1]) | IC50 (Gi2 BRET, pH 7.4) (human CCR8 [1]) | Top plateau value (% of hCCL1 100 nM) with 5 µg/mL mAb, Protocol #3 (human CCR8 [2]) | % positive cells (human CCR8 [3]) | MFI fold change to isotype ctrl (human CCR8 [3]) | hCCL1 (100 nM) residual response, Protocol #2, mAb 0.08 µg/mL (human CCR8 [4]) | hCCL1 (100 nM) residual response, Protocol #2, mAb 0.4 µg/mL (human CCR8 [4]) | hCCL1 (100 nM) residual response, Protocol #2, mAb 10 µg/mL (human CCR8 [4]) | hCCL1 (100 nM) residual response, Protocol #3, mAb 0.05 µg/mL (human CCR8 [4]) | hCCL1 (100 nM) residual response, Protocol #3, mAb 0.5 µg/mL (human CCR8 [4]) | hCCL1 (100 nM) residual response, Protocol #3, mAb 5 µg/mL (human CCR8 [4]) | Binder
binds | binds | binds | binds | 0.051 µg/ml and 0.34 nM | 0.059 µg/ml and 0.396 nM | 663% | 85.7% | 9.8 fold | 101% | 93% | 100% | 92% | 81% | 73% | 3-13 (antibody, V domains shown) VH: KVQLQQSGPELVKPGASVKISCKTSGYTFTEYTIHWVQQIHGKSPEWIGGINPNGDTRYDQKFKGKATLTIDKSSSTAYMELRSLTSEDSAVYYCARVARFYGISPYAMDYWGQGTSVTVSS VL: DVVMTQTPLSLPVSLGDQASISCRCTQSLLHSNGDTYLHWYLQKPGQSPNLLIYKVSNRFSGVPDRFSGSGSGTDFTLKINRVEAEDLGVYFCSQSTHVPYTFGGGTNLEIK
binds | binds | binds | binds | – | – | 855% | 56.2% | 4.78 fold | 104% | 46% | 28% | 80% | 57% | 45% | 3-33 (antibody, V domains shown) VH: EVQLQQSGPELVKPGASVKISCKTSGYTFTEYTIHWVKQSHGESLEWVGGINPNNGNTRYDQKFKGKATLTIDKSSSPAYMELRSLTSEDSAVYYCARVARSSGSGPYAMDYWGQGTSVTVSS VL: DVVMTQTPLSLPVSLGDQASISCRCTQSLLHTNGDTYLHWYLQKPGQSPKLLIYKVSNRFSGVPDRFSGSGSGTDFTLKISRVEAEDLGVYFCSQSTHVPYTFGGGTKLEIK
– | – | – | – | 0.162 µg/ml and 1.08 nM | 0.152 µg/ml and 1.01 nM | 292% | 34.7% | 2.34 fold | 97% | 96% | 84% | 96% | 81% | 73% | 3-50 (antibody, V domains shown) VH: EVQLQQSGPELVKPGASVKISCKASVYSFTGSYMHWVKQSHVKSLEWIGRINPYNGATSYNQNFKDKASLTVDKSSSTAYMELHSLTSEDSAVYYCATTLLRLLDYWGQGTTLTVSS VL: DIVMTQAAFSNPVTLGTSASISCRSSKSLLHSNGITYLYWYLQKPGQSPQLLIYQMSNLASGVPDRFSSSGSGTDFTLRISRVEAEDVGVYYCAQNLELPWTFGGGTKLEIK
binds | binds | binds | binds | 0.012 µg/ml and 0.08 nM | 0.015 µg/ml and 0.097 nM | 948% | 77% | 9.2 fold | 52% | 68% | 53% | 76% | 62% | 59% | 3-53 (antibody, V domains shown) VH: QVQVQQSGAELARPGASVKMSCKASGYTFTTYAMHWVKQRPGQGLEWIGHINPSSGYSNYNQKFKDKATLTADKSSSTAYMQLSSLTSEDSAVYYCARSEVRRGYFDVWGAGTTVTVSS VL: DIQMTQTTSSLSASLGDRVTISCRTSQDIRNYLNWYQQKPDGTVKLLISYTSRLHSGVPSRFSGSGSGTDYSLTISNLEQEDFATYFCQQGNTLPPTFGGGTRVEIK
